Laboratory results: article PMC3617124

Experiments:
Assay in all cases: fluorescence polarisation
[1] = target: BAKΔC
[2] = target: BAX (recombinant, tagless, full-length) (human) (UniProt Q07812)
[3] = target: BCL-XLΔC
[4] = target: MCL-1ΔNΔC (residues 172–327) (UniProt Q07820)
[5] = target: BFL-1/A1ΔC

Chain of MCL-1ΔNΔC (residues 172–327) (Q07820 172-327, stated change not applied): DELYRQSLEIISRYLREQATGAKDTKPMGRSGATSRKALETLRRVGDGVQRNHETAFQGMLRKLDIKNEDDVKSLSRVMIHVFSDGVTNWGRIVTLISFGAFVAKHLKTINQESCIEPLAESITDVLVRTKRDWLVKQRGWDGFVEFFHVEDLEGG
Chain of BAX (recombinant, tagless, full-length) (human) (Q07812 whole entry): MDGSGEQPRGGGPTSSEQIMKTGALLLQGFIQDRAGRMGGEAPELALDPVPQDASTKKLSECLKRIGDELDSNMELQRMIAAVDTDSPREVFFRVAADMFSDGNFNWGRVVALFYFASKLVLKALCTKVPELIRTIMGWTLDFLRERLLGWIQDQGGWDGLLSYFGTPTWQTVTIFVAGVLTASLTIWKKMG
Chain of BCL-XLΔC (Q07817 1-209, stated change not applied): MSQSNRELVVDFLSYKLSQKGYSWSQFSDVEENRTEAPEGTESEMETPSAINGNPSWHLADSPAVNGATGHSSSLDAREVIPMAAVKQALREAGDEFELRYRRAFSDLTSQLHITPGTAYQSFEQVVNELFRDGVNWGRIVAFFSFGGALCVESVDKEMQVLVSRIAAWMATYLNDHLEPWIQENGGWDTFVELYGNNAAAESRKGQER

With “N-terminally acetylated BIM SAHB (peptide)” the IC50 [1] was 827 nM, the IC50 [2] was 314 nM and the IC50 [3] was 572 nM. For the same substance, the IC50 [4] was 136 nM.

In the case of “N-terminally acetylated BIM SAHB (peptide; other documents disagree on this pair)”, the IC50 [5] is reported as 603 nM.

“FITC-BIM SAHB (fluoresceinated stabilized α-helix of BCL-2 domain modeled after BIM BH3) (peptide)” showed an EC50 [1] of 173 nM, an EC50 [2] of 283 nM and an EC50 [4] of 19.8 nM.
